From the RNAGym collection of RNA variant scans (doi:10.1073/pnas.2313332121)
This sample holds only a part of the variants without activity.

B1: TPR 5TU (parent)
chain: GGAUCUUCUCGAUCUAACAAAAAAGACAAAUCUGCCACAAAGCUUGAGAGCAUCUUCGGAUGCAGAGGCGGCAGCCUUCGGUGGCGCGAUAGCGCCAACGUUCUCAACUAUGACACGCAAAACGCGUGCUCCGUUGAAUGGAGUUUAUCAUG

Variants of: B1
Assay: polymerase ribozyme fitness, log enrichment relative to wild type (log ratio); higher = more active; in vitro selection for triplet polymerase activity
Summary of the method: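 A single round of triplicate in vitro selection, including frozen incubation at −7 °C, was applied to PCR-built, transcribed mutant libraries of each subunit of a heterodimeric triplet polymerase ribozyme. Illumina sequencing of input and output libraries retained genotypes with ≥10 input reads and ≥1 read per output. Fitness is the base-2 logarithm of genotype enrichment divided by wild-type enrichment, from inverse-variance-weighted replicate averages.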

Row | Variant | polymerase ribozyme fitness (log ratio)
1 | GGAUCUUCUCGAUCUAACAAAAAAGACAAAUCUGCCACAAAGCAAGAGCGCAUCUUUGGAUGCAGAGGCAGCAGCCUUCGGUGUCGCGAUUGCGCCAACGUUCUCAACUAUGACACGCAAAAGGCGUGCUCCGUUGAAUGGAGUUUAUCAUG [U44A U45A A49C C57U G70A G84U A91U C123G] | ≤ -4.2
2 | GGAUCUUCUCGAUCUAACAAAAAAGACAAAUCUGCCACAAAGCAUGACAGCAUCUUCGAAUGCAGAGGCGGCAGCCUUCGGCGGCGCGAUAGCGCCAACGUUCUCAACUAUGACAGGCAAAAUGCGUGCUCCGCUGAAUGGAGUUUAUCAUG [U44A G48C G59A U82C C116G C123U U134C] | ≤ -4.2
3 | GGAUCUUCUCGAUCUAACAAAAAAGACAAAUCUGCCACAAAGCAUGAGACCAUCUUCGGAUGCAGAGGCGGCAGCCUUCGGUGUCGCAAUAGCGCCAACGUUCUCAACUAUGACACGCAAAACGCGUGCUCCGUUGAACGGAGUUUAUCAUA [U44A G50C G84U G88A U139C G152A] | ≤ -4.2
4 | GGAUCUUCUCGAUCUAACAAAAAAGACAAAUCUGCCACAAAGCGUGAGAGCAUCUUCGGAUGCAGAGGCGGCAGCCUUCGGUGGCGCGAUAGCGCCAACGUUCUCAACUAUGACACGCAUAACGCGUGCUCCGUUGAAUGGAGUUUAUCAUG [U44G A120U] | ≤ -4.2
5 | GGAUCUUCUCGAUCUAACAAAAAAGACAAAUCUGCCACAAAGCGUGAGAGCAUCUUCGGAUGCAGAGGCCGCAGCCUUCGGUGGCGCGAUAGCGCCAACGUUCUCAACUAUGACACGCAAAACGCGUGCUCCGUUGAAUUGAGUUUAUCAUG [U44G G70C G140U] | ≤ -4.2
6 | GGAUCUUCUCGAUCUAACAAAAAAGACAAAUCUGCCACAAAGCAUGAGAGCAUCUUCGGAUGCAGAGUCGGCAGCCUUCGGUGGCGCGAUAUCGCCAGGGUUCUCAACUAUGACACGCAAAACGCGUGCUCCGUUGAAUGGAGUUUAUCAUG [U44A G68U G92U A98G C99G] | ≤ -4.2
7 | GGAUCUUCUCGAUCUAACAAAAAAGACAAAUCUGCCACAAAGCAUGAGAGCAUCUUCGGAUGCAGAGGCGGCAGCCUUCGGUGGCGCGAUAGCGCCAACGUUCUCAACUAUGACACACAAAACGCGUGCUCCGUGGAAUGGAGUUUAUCAUG [U44A G117A U135G] | ≤ -4.2
8 | GGAUCUUCUCGAUCUAACAAAAAAGACAAAUCUGCCACAAAGCGUGAGAGCAUCUUCGGAUGCAGAGGCGGCGGCCUUCGGUGGCGCGAUGGCGCCAACGUUCUCACCUAUGACACGCAAAACGCGUGCUCCGUUGAAUGGAGUUUAUCAUG [U44G A73G A91G A107C] | ≤ -4.2
9 | GGAUCUUCUCGAUCUAACAAAAAAGACAAAUCUGCCACAAAGCAUGAGAGCAUCUUCGGAUGCAGAGGCGGCAGCCUUCGGUGGCGCGAUAGCGCCAACGUUCUCAACUAUGACACGCAAAACGCGUGCUCCGAUGAAUGGAGUUUAUCAUG [U44A U134A] | ≤ -4.2
10 | GGAUCUUCUCGAUCUAACAAAAAAGACAAAUCUGCCACAAAGCAUCAGAGCAUCUUCGGAUGCAGAGGCGGCAGCCUUCGGUGGCGUGAUAGCGCCAACGUUCUCAACUAUGACACGCAAAACGCGUGCUCCGUUGAAUGGAGUUUAUCAUG [U44A G46C C87U] | ≤ -4.2
11 | GGAUCUUCUCGAUCUAACAAAAAAGACAAAUCUGCCACAAAGCGUGAGAGCAUCUUCGGAUGCAGAGGCGGCAGCCUUCGGUGGCGCGAUAGCGCCAACGUUCUCAACUAUGACACGCAAAACGCGUGCUCCGUUGAAUGAAGUUUAUCAUG [U44G G141A] | -4.12
12 | GGAUCUUCUCGAUCUAACAAAAAAGACAAAUCUGCCACAAAGCAUGAGAGCAUCUUCGGAUGCAGAGGCGGCAGCCUUCGGUGAGGCGAUAGCGGCAAUGUUCUCAACUAUGACACGCAAAACGCGUGCUCCGUUGAAUGGAGUUUAUCAUG [U44A G84A C85G C95G C99U] | -3.94
13 | GGAUCUUCUCGAUCUAACAAAAAAGACAAAUCUGCCACAAAGCGUGAGCGCAUCUUCGGAUGCAGAGGCGGCAGCCUUCGGUGGCGCGAUAGUGCCAACGUUCUCAACUAUGACACGCAAAACGUGUGCUCCGUUGAAUGGAGUUUAUCUUG [U44G A49C C93U C125U A150U] | ≤ -4.2
14 | GGAUCUUCUCGAUCUAACAAAAAAGACAAAUCUGCCACAAAGCGUGAGAGCAUCUUGGGAUGCAGAGGCGGCAGCCUUCGGUGGCGCGAUUGCGCCAACGUUCUCAGCUAUGACACGCAAAACGUGUGCCCCGUGGAAUGGAGUUUAUCAUG [U44G C57G A91U A107G C125U U130C U135G] | ≤ -4.2
15 | GGAUCUUCUCGAUCUAACAAAAAAGACAAAUCUGCCACAAAGCAUGAGAGCAUCAUCGGAUGCAGAGGCGGCAGACUUCGGUGACGCGAUAGCGCCAACGUUCUUAACUAUGACACGCAAAACGCGUGCUCCGUUGAAUGGAGUUUAUCAUG [U44A U55A C75A G84A C105U] | ≤ -4.2
16 | GGAUCUUCUCGAUCUAACAAAAAAGACAAAUCUGCCACAAAGCGUGAGAGCAUCUUCGGUUGCAGAGGCGGCAGCCUUCGGUGGCGCGAUAGCGCCAACGUUCUCAACUAUGACCCGCAAAACGCGUGCUCCGUUGAAUGGAGUUUAUCAUG [U44G A60U A115C] | ≤ -4.2
17 | GGAUCUUCUCGAUCUAACAAAAAAGACAAAUCUGCCACAAAGCAUGAGAGCAUCAUCGGAUGCAGAGGGGGCAGCCUUCGGUGGCUCGAUAGCGCCAACGUUCUCAACUAUGACACGCAAAACGCGUGCUCCGUUGAAUGAAGUUUAUCAUG [U44A U55A C69G G86U G141A] | -4.2
18 | GGAUCUUCUCGAUCUAACAAAAAAGACAAAUCUGCCACAAAGCAUGAGAGCAUCUUCGGAUGCAGAGGCGGCAGCCUUCGGUGGCGCGAUAAAGCCAACGUUCUCAACUAUGACACGCAAAACGCGUGCUCCGUUGAAUGCAGUUUAUCAUG [U44A G92A C93A G141C] | ≤ -4.2
19 | GGAUCUUCUCGAUCUAACAAAAAAGACAAAUCUGCCACAAAGCGUGAGAGCGACUUCGGAUGCAGAGGCGGCAGACUUCGGUGGCGCGAUAGCGCCAACGUUCUCAACUAUGACACGCAAAACGCGUGCUCCGUUGAAUGGAGUUUAUCAUG [U44G A52G U53A C75A] | ≤ -4.2
